{"source": "patent US20180028516A1", "about": "“METHODS AND DEVICES FOR THE TREATMENT OF OCULAR DISEASES IN HUMAN SUBJECTS” (CLEARSIDE BIOMEDICAL, INC., priority 2012, published 2018)", "key": {"[1]": {"assay": "Delivery and clearance of sodium fluorescein from the suprachoroidal space in live rabbits (Example 5)", "assay_type": "in vivo, rabbit", "conditions": "SCS injection", "protocol": "The delivery of a fluorescent molecule (sodium fluorescein) to the suprachoroidal space was evaluated using rabbits according to approved live animal experimental protocols. A one dimensional scan of the eye (through line of sight) was taken within the first five minutes after injection to determine the dispersion of the fluorescent molecule in the eye (FIG. 14). The y-axis indicates the fluorescent intensity (i.e., the concentration) and the x-axis represents the position in the eye from front (160) to back (0). Thus, the results illustrate that within the first 5 minutes after injection, the fluorescein had already flowed through the suprachoroidal space to the back of the eye. with some remaining at the initial insertion site.\nSimilar scans were taken to evaluate the rate of clearance of fluorescein from the suprachoroidal space over time (FIG. 15). The fluorescent intensity was measured in two regions of the eye (the suprachoroidal space and mid-vitreous region) over time. The results illustrate that the bulk of the material injected remains in the suprachoroidal space without passing into the mid-vitreous region and that the material substantially cleared the suprachoroidal space within 24 hours."}, "[2]": {"assay": "Phase 1 safety and tolerability of suprachoroidal bevacizumab in patients with CNV secondary to wet AMD (Example 14)", "assay_type": "in vivo, human", "protocol": "(§1) The safety and tolerabilty of a single microneedle injection of bevacizumab into the suprachoroidal space (SCS) using a micronocedle was evaluated. Four adult patients with choroidal neovascularization (CNV), secondary to wet age-related macular degeneration (AMD), were enrolled in a phase 1, single-center, open-label study. Each subject provided informed consent and was screened for eligibility. […] Treated patients remained in the clinic for 4 hours for observation and then retumed multiple times for follow-up during a 2 month period. Major safety examinations included intraocular pressure (IOP), angiograms, biomicroscopy, indirect ophthalmoscopy, fundus photography, optical coherence tomography (OCT), visual acuity (VA) (Table 8), and assessment of pain."}, "[3]": {"assay": "Visual acuity of patients after suprachoroidal bevacizumab (Example 14)", "assay_type": "in vivo, human", "protocol": "as §1"}}, "data": [{"molecule": "O=C1OC2(c3ccc(O)cc3Oc3cc(O)ccc32)c2ccccc21", "note": "[fluorescein, sodium fluorescein]", "values": [{"measurement": "time to substantial clearance from the suprachoroidal space", "setting": "[1]; fluorescent intensity", "value": "≤ 24", "unit": "h"}, {"measurement": "time for fluorescein to flow through the suprachoroidal space to the back of the eye", "setting": "[1]; one dimensional fluorescence scan", "value": "≤ 5", "unit": "min"}]}, {"molecule": "bevacizumab: humanized monoclonal antibody, angiogenesis inhibitor (Avastin)", "values": [{"measurement": "effect on IOP, OCT or VA", "setting": "[2]; 100 μL bevacizumab SCS, any subject", "value": "No negative effect"}, {"measurement": "adverse events related to bevacizumab or the method of administration", "setting": "[2]; 100 μL bevacizumab SCS, ophthalmic examinations", "value": "no unexpected or serious adverse events"}, {"measurement": "level of pain recorded for the administration", "setting": "[2]; 100 μL bevacizumab SCS, topical anesthesia, four patients", "value": "moderate"}, {"measurement": "intraretinal fluid (OCT)", "setting": "[2]; patient number 3, 56 days after injection vs before injection", "value": "Decrease"}, {"measurement": "rescue therapy or reinjection", "setting": "[2]; two months following treatment", "value": "No patients required rescue therapy or reinjection"}, {"measurement": "Visual Acuity", "setting": "[3]; Patient 1, 28 day post dose", "value": "20/40"}, {"measurement": "Visual Acuity", "setting": "[3]; Patient 1, 56 day post dose", "value": "20/40"}, {"measurement": "Visual Acuity", "setting": "[3]; Patient 1, Pre-does", "value": "20/80"}, {"measurement": "Visual Acuity", "setting": "[3]; Patient 1, Screening", "value": "20/40"}, {"measurement": "Visual Acuity", "setting": "[3]; Patient 2, 28 day post dose", "value": "20/20"}, {"measurement": "Visual Acuity", "setting": "[3]; Patient 2, 56 day post dose", "value": "20/20"}, {"measurement": "Visual Acuity", "setting": "[3]; Patient 2, Pre-does", "value": "20/40"}, {"measurement": "Visual Acuity", "setting": "[3]; Patient 2, Screening", "value": "20/40"}, {"measurement": "Visual Acuity", "setting": "[3]; Patient 3, 28 day post dose", "value": "20/250"}, {"measurement": "Visual Acuity", "setting": "[3]; Patient 3, 56 day post dose", "value": "20/250"}, {"measurement": "Visual Acuity", "setting": "[3]; Patient 3, Pre-does", "value": "20/320"}, {"measurement": "Visual Acuity", "setting": "[3]; Patient 3, Screening", "value": "20/320"}, {"measurement": "Visual Acuity", "setting": "[3]; Patient 4, 28 day post dose", "value": "20/400"}, {"measurement": "Visual Acuity", "setting": "[3]; Patient 4, 56 day post dose", "value": "20/400"}, {"measurement": "Visual Acuity", "setting": "[3]; Patient 4, Pre-does", "value": "20/400"}, {"measurement": "Visual Acuity", "setting": "[3]; Patient 4, Screening", "value": "20/400"}]}]}
